T1: human Nectin-4 (human, UniProt Q96NY8 32-510)
T1 construct: whole, on cells; Cell-surface target of the FACS, endocytosis and proliferation assays (CHO-huNectin4 S8 cells, BT474 cells); the assay field says which cells; also called huNectin4; PVRL4
T1 sequence (looked up): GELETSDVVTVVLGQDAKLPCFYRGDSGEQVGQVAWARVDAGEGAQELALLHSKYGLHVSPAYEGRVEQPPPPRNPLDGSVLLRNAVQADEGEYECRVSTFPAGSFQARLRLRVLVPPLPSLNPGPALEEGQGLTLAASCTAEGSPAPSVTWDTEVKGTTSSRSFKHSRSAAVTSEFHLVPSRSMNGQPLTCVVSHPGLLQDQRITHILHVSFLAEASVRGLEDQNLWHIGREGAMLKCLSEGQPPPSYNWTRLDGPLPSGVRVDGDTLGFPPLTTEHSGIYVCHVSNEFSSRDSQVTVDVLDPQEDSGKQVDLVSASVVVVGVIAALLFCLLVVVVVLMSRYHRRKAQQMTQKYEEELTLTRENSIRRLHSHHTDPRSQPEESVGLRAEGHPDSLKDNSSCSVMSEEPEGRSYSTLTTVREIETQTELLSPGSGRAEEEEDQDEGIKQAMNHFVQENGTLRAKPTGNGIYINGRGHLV

T2: His-tagged human NECTIN4 (human, UniProt Q96NY8 32-349)
T2 construct: Antigen of the BIAcore assay; also called antigen; recombinant NECTIN4 protein; not shown: His tag
T2 sequence: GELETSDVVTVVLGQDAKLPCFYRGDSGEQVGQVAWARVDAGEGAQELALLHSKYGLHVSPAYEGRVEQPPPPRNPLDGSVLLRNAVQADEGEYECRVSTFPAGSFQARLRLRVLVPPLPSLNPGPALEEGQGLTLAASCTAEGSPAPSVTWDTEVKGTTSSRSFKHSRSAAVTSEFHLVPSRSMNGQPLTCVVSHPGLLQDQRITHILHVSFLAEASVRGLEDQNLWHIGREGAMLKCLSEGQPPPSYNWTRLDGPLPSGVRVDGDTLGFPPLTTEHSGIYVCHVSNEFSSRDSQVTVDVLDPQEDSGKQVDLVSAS

B1: chimeric antibody 5M21 xiIgG (antibody, V domains shown)
VH: QVQLQQSGPELVKPGASVRITCKASGYTFTTYYIHWVKQRPGQGLEWIGWIYPGNVNTKYNEKFKGKATLTADKSSSTAYMQLSSLTSEDSAVYFCARGLYYFDYWGQGTTLTVSS
VL: SIVMTQTPKFLLVSAGDRLTITCKASQSVSNDVAWYQQKPGQSPKLLIYYASNRYTGVPDRFTGSGYGTDFTFTISTVQAEDLAVYFCQQDYSSPYTFGGGTKLEIKR
B2: 5M21 hz00 (antibody, human IgG1, kappa, V domains shown)
VH: QVQLVQSGAEVKKPGASVKVSCKASGYTFTTYYIHWVRQAPGQRLEWMGWIYPGNVNTKYNEKFKGRVTITRDTSASTAYMELSSLRSEDTAVYYCARGLYYFDYWGQGTLVTVSS
VL: DIQMTQSPSSLSASVGDRVTITCKASQSVSNDVAWYQQKPGKVPKLLIYYASNRYTGVPSRFSGSGSGTDFTLTISSLQPEDVATYYCQQDYSSPYTFGGGTKVEIKR
notes: Humanized
B3: 5M21 hz10 (antibody, human IgG1, kappa, V domains shown)
VH: B2 VH with R72A, T74K
VL: B2 VL
notes: Humanized
B4: 5M21 hz11 (antibody, human IgG1, kappa, V domains shown)
VH: B2 VH with R72A, T74K
VL: B2 VL with V83L, Y87F
notes: Humanized
B5: 5M21 hz01 (antibody, human IgG1, kappa, V domains shown)
VH: B2 VH
VL: B2 VL with V83L, Y87F
notes: Humanized
B6: chimeric antibody 42D20 xiIgG (antibody, V domains shown)
VH: QVQLKESGPGLVAPSQSLSISCTVSGFSLIDYGVSWIRQPPGKGLEWLGVIWGDGKIYYNSVLKSRLSISKDNSKSQVFLKMNSLQTDDTAMYYCAKQGGLLFYAMDYWGQGTSVTVSS
VL: DIVMTQSPSSLAMSVGQRVTMNCKSSQSLLNSYSQKNYLAWYQQKPGQSPKLLIYFASTRESGVPDRFIGSGSETDFTLTISSVQAEDLADYFCQQHYNTPFTFGSGTKLEIKR
B7: 42D20 hz00 (antibody, V domains shown)
VH: QVQLQESGPGLVKPSETLSLTCTVSGFSLIDYGVSWIRQPPGKGLEWIGVIWGDGKIYYNSVLKSRVTISVDTSKNQFSLKLSSVTAADTAVYYCARQGGLLFYAMDYWGQGTLVTVSS
VL: DIVMTQSPDSLAVSLGERATINCKSSQSLLNSYSQKNYLAWYQQKPGQPPKLLIYFASTRESGVPDRFSGSGSGTDFTLTISSLQAEDVAVYYCQQHYNTPFTFGAGTKLELKR
notes: Humanized
B8: 42D20 hz03 (antibody, V domains shown)
VH: B7 VH
VL: B7 VL with S32T, P49S, G74E, V89L, Y93F
notes: Humanized
B9: 42D20 hz01 (antibody, V domains shown)
VH: B7 VH
VL: B7 VL with P49S, G74E, V89L, Y93F
notes: Humanized
B10: 42D20 hz23 (antibody, V domains shown)
VH: B7 VH with D54E, V71K, T73N, N76S, F78V, R97K
VL: B7 VL with S32T, P49S, G74E, V89L, Y93F
notes: Humanized
B11: 42D20 hz21 (antibody, V domains shown)
VH: B7 VH with D54E, V71K, T73N, N76S, F78V, R97K
VL: B7 VL with P49S, G74E, V89L, Y93F
notes: Humanized
B12: 42D20 hz20 (antibody, V domains shown)
VH: B7 VH with D54E, V71K, T73N, N76S, F78V, R97K
VL: B7 VL

Changes are numbered by the printed parent chain.

Broadly, the EC50 is the concentration giving half of the maximal effect. Read a low EC50 as greater potency. The term Kd denotes the equilibrium constant for the complex coming apart. A higher Kd goes with lower affinity. One may read the koff as the rate constant with which the complex falls apart. Read a low koff as slow dissociation. What is called kon is the rate constant with which the complex forms. High values mean faster complex formation, low ones slower complex formation.

In the first assay the target is T1, human Nectin-4. Nature of the assay: FACS on BT474 cells. The procedure: (§1) The solutions of different concentrations were added to 384-well plates, 10 µl per well.
(§2) BT474 cells (breast cancer cells) expressing Nectin-4 on the cell surface were collected by centrifugation at 100 g at room temperature for 5 minutes, and then the cells were washed with PBS containing 0.5% BSA once and were centrifuged at 100 g at room temperature for 5 minutes. […] After incubation at 4° C. for 1 hour, fluorescently labeled goat anti-human IgG secondary antibody was added. After continued incubation at 4° C. for 1 hour, mean fluorescence readings of the cell populations were analyzed by a flow cytometer.
(§3) The experiment results of the binding of engineered humanized molecules of the present disclosure to BT474 cells by FACS assay are shown in panels 3B and 3C in FIG. 3 and Tables 6 and 7.
For B1, it took 46.1 µg/mL to reach a half-maximal effect (EC50).

B2 yielded an EC50 of 52.2 µg/mL.

With B3, the response was half-maximal at 44.3 µg/mL (EC50).

As for B4, the midpoint of the response, the EC50, lay at 44.5 µg/mL.

In turn, B5 registered an EC50 of 48.1 µg/mL.

Another assay deals with T2, His-tagged human NECTIN4. Nature of the assay: SPR (BIAcore S200), antigen on CAP chip, antibody as analyte, 1:1 fit. The procedure: Interactions between the antibodies and the antigen were measured using a BIAcore instrument S200 from GE. Referring to the instructions provided in Biotin Capture Kit from GE Healthcare, the analytical channel and the control sample channel on CAP sensor chip were first coupled with antigen i.e. His-tagged human NECTIN4, then samples containing antibodies (diluted 3-fold from an initial concentration of 20 nM respectively and solutions of each antibody of 8 concentrations were obtained totally, and the concentration 0.741 nM was set to be repeated) were allowed to flow through both the analytical channel and the sample channel, and the photoreactions upon antibody-antigen binding were measured. Association constant Kon and dissociation constant Koff and affinity constant KD of each antibody were finally obtained by instrument software fitting (1:1 binding mode) analysis.
(In general: SPR reads the build-up and loss of mass on a sensor chip optically.)
With B6, binding was characterised by a dissociation constant (Kd) of 1.01 nM, the koff came out at 0.000798 s⁻¹ and the kon stood at 790000 M⁻¹ s⁻¹.

The next assay concerns the target T1, human Nectin-4. Nature of the assay: cell-based or functional assay.
With B1, the “Endocytosis efficiency (%)” value was determined as 56.9%.

For the molecule B2, the “Endocytosis efficiency (%)” value amounted to 54.8%.

In the case of B3, the “Endocytosis efficiency (%)” value was 64.8%.

With B4, the “Endocytosis efficiency (%)” value is 64.4%.

As to B5, the “Endocytosis efficiency (%)” value came to 62.2%.

In another assay the target is T1, human Nectin-4. The assay is described as follows: FACS on BT474 cells. This is another data set of the same source. As for the experimental part:
as §1, §2, §3
B7: the concentration giving a half-maximal response (EC50) amounted to 1.34 µg/mL.

The molecule B8 had an EC50 of 0.0676 µg/mL.

For B9, the EC50 is 0.132 µg/mL.

In turn, B10 had an EC50 of 0.0503 µg/mL.

B11 yielded an EC50 of 0.285 µg/mL.

B6 registered an EC50 of 0.077 µg/mL.

A further assay addresses T1, human Nectin-4. The assay is described as follows: cell-based or functional assay. The source holds these as a separate data set.
B7: the “Endocytosis efficiency (%)” value came out at 39.1%.

On to B8, for which the “Endocytosis efficiency (%)” value was found to be 41.1%.

Consider B9, for which the “Endocytosis efficiency (%)” value was 41.5%.

Take B10: the “Endocytosis efficiency (%)” value was determined as 45%.

As to B12, the “Endocytosis efficiency (%)” value is 42%.

As to B11, the “Endocytosis efficiency (%)” value came to 43.9%.

For the molecule B6, the “Endocytosis efficiency (%)” value came out at 54%.

The values are drawn from patent US20230265183A1 (MABWELL SHANGHAI BIOSCIENCE, published 2023).
